The values below come from patent KR20170011863A.

Substrate in the assay: B형 간염 바이러스의 표면 항원 (Hepatitis B surface antigen; HBsAg) (Hepatitis B virus)
In words: cell-based or functional assay.

B1: GC1102 (HBsAg에 대한 인간 HBV 항체) (antibody, V domains shown)
VH: QVKLLESGGGLVKPGGSLRLSCSASGFSLTKYKMTWVRQAPGKGLEWVSSISSTSRDIDYADSVKGRFTISRDNAKNSLFLQMSSLRVDDTAVYYCTRDGWLWGWDVRSNYYYNALDVWGQGTTVTVSS
VL: ELVMTQSPSSLSASVGDRVTITCRASQGIYNSIAWYQQKPGKAPKLLLYSTSTLLSGVPSRFSGSGSGTDYTLTITNLQPEDFATYYCQQYFVTPETFGQGTKVEIKR
As to B1, the EC50 (effective concentration) of inhibition of HBV infection of HepG2-NTCP cells is 0.015 µg/mL and the EC50 (effective concentration) of inhibition of HBV infection of HepG2-NTCP cells, converted to molar concentration (150 kDa) worked out at 0.1 nM.
